Source: publication PMC7746861, “Acetate Metabolism in Archaea: Characterization of an Acetate Transporter and of Enzymes Involved in Acetate Activation and Gluconeogenesis in Haloferax volcanii” (Frontiers in Microbiology, 2020)
Where two headings read alike, the source gives them in different places. Blank lines part the entries; values can stand above or below the molecule they belong to.

What was measured:
[1] = biological target: Malic enzyme Mae1 from Haloferax volcanii, recombinant (Haloferax volcanii); test: SEC; Superdex 200 HiLoad column (1.6 x 60 cm), flow rate 1 ml per min, calibrated with HMW and LMW kits (GE Healthcare); native mass compared with the subunit mass by SDS-PAGE; 50 mM Tris-HCl, pH 7.5, 1.5 M KCl
[2] = substrate: CC(=O)O; test: purified protein; conditions: acetate activation, ATP, CoA
[3] = biological target: the molecule itself; test: SEC; Superdex 200 HiLoad column (1.6 x 60 cm), flow rate 1 ml per min, calibrated with HMW and LMW kits (GE Healthcare); native mass compared with the subunit mass by SDS-PAGE; 50 mM Tris-HCl, pH 7.5, 1.5 M KCl
[4] = substrate: Nc1ncnc2c1ncn2[C@@H]1O[C@H](COP(=O)(O)OP(=O)(O)OP(=O)(O)O)[C@@H](O)[C@H]1O; test: purified protein; type: biochemical, Haloferax volcanii; conditions: acetate activation, ATP, CoA
[5] = substrate: CC(C)(COP(=O)(O)OP(=O)(O)OC[C@H]1O[C@@H](n2cnc3c(N)ncnc32)[C@H](O)[C@@H]1OP(=O)(O)O)[C@@H](O)C(=O)NCCC(=O)NCCS; test: purified protein; type: biochemical, Haloferax volcanii; conditions: acetate activation, ATP, CoA
[6] = substrate: CC(=O)SCCNC(=O)CCNC(=O)[C@H](O)C(C)(C)COP(=O)(O)OP(=O)(O)OC[C@H]1O[C@@H](n2cnc3c(N)ncnc32)[C@H](O)[C@@H]1OP(=O)(O)O; test: purified protein; type: biochemical, Haloferax volcanii; conditions: acetate formation (reverse), AMP, PPi, MgCl2, 2 M KCl, pH 7.0, 42°C
[7] = substrate: O=C(O)C[C@H](O)C(=O)O; test: purified protein; conditions: NADP+, MnCl2, 4 M KCl, pH 5.75, 42°C, pH 5.75
[8] = substrate: NC(=O)C1=CN([C@@H]2O[C@H](COP(=O)(O)OP(=O)(O)OC[C@H]3O[C@@H](n4cnc5c(N)ncnc54)[C@H](OP(=O)(O)O)[C@@H]3O)[C@@H](O)[C@H]2O)C=CC1; test: purified protein; type: biochemical, Haloferax volcanii; conditions: reverse reaction, pyruvate, NaHCO3, MnCl2, 4 M KCl, pH 5.75, 42°C, varied: cofactor
[9] = substrate: NC(=O)c1ccc[n+]([C@@H]2O[C@H](COP(=O)(O)OP(=O)(O)OC[C@H]3O[C@@H](n4cnc5c(N)ncnc54)[C@H](OP(=O)(O)O)[C@@H]3O)[C@@H](O)[C@H]2O)c1; test: purified protein; type: biochemical, Haloferax volcanii; conditions: L-malate, MnCl2, 4 M KCl, pH 5.75, 42°C, varied: cofactor
[10] = biological target: the molecule itself; test: SEC; Superdex 200 HiLoad column (1.6 x 60 cm), flow rate 1 ml per min, calibrated with HMW and LMW kits (GE Healthcare); native mass compared with the subunit mass by SDS-PAGE; 50 mM Tris-HCl, pH 7.5, 1.5 M KCl; remark: listed apart in the source
[11] = MgCl2, 1 M KCl, pH 7.0, 42°C, pH 7.0
[12] = recombinant, MgCl2, 2 M KCl, pH 7.5, 42°C, pH 7.5
[13] = recombinant, MgCl2, 2 M KCl, pH 7.5, 42°C

- stoichiometry N [1]: 8
Molecule: Malic enzyme Mae1 from Haloferax volcanii, recombinant

B1: AMP-forming acetyl-CoA synthetase ACS1 from Haloferax volcanii, recombinant (enzyme, UniProt D4GUW1 1-662, looked up)
chain: MADGDTELEARLVEQEEFEPSEEFVAQANVSDPAVYDEFEENWPDCWERAAEMLDWDEKYDEVLDDSNPPFYEWFTGGKLNVSYNCVDRHVENGDKNRVAIKWEGEHGETRTYTYQDLYREVNEFAAALRDLGVEEDDVVTLYMPMIPELPIAMLACARIGAPHSVVFGGFSAEALATRMNAADSRFLVTCDGYYRRGDPLDHLDKANEGLDGVDHGVDATVVVDRLGDDGFDHDLKGNQHDWDDLLDEHAGERIDPVERDAEDMLFLMYTSGTTGQPKGVKHTTGGYLAYAAWTSHAVLDIEKEDTYWCSADIGWITGHSYIVYGPLALGTTTVMYEGTPDFPNRDRLWDIIEKYAVDIFYTAPTAIRAFMKWGSRFPEQHDLSSLRLLGTVGEPINPRAWKWYYKHIGNEDCPVVDTWWQTETGGMMITTLPGIKKMKPGSAGPPLPGIDAQIVDTSGKQVDAGRAGYLTVNKPWPGMLRTLYKNDERFIQEYWQEYSDTDSDDPDDWVYFPEDGAKIDGDDYITILGRVDDVINVSGHRLGTMEIESAIVGVEGVAEAAVVGGNHEVKGEAVYAYVITEEGQDEDDEMRGRIIEGVEDAIGPIARPEMVVFTPELPKTRSGKIMRRLLEEIANGEELGDTTTLRNPEVVESIQRQVESE
notes: AMP-forming acetyl-CoA synthetase ACS1 of Haloferax volcanii, gene acs1, locus tag HVO_0894; calculated subunit 71.2 kDa; gene amplified from genomic DNA; also called HVO_0894; source: H. volcanii H1209 (plasmid pTA963, homologous overexpression), purified (Ni-NTA, Superdex 200)
- Km [2, 11]: 90 µM
- Vmax [2, 11]: 0.4 µmol/min/mg
- stoichiometry N [3]: 2
- Km ([4]; MgCl2, 1 M KCl, pH 7.0, 42°C): 480 µM
- Km ([5]; MgCl2, 1 M KCl, pH 7.0, 42°C): 730 µM
- Km [6]: 570 µM
- Vmax [6]: 0.25 µmol/min/mg

B2: Mae1 (Haloferax volcanii DS2) (protein)
chain: MGLDDDSRKYHRQDPPGKIEIATTKPTNTQRDLSLAYSPGVAAPCLDIAEDEDAAYEYTAKGNLVGVVSNGSAVLGLGDIGAQASKPVMEGKGVLFKRFADIDVFDVELDIADVDDFVAATKAMEPTFGGINLEDIKAPECFEIERQLREQMDIPVFHDDQHGTAIISGAALLNAADIVDKDLDELDIVFSGAGASALATARFYVSLGAKKENITMCDSSGIITESRVEDGDVNKYKAEFAKPVDEGSLSDAMEGADVLAGLSVGGIVSQEMVRSMADNPVIFAMANPDPEITYEDAKDARDDTVIMATGRSDYPNQVNNVLGFPFIFRGALDVRATEINEAMKRAAAEALAELARQDVPDAVVKAYGDHPLQFGADYVIPKPLDPRVLFEVAPAVAQAAMTSGAARERLDMNAYREELEARLGKSREMMRVVLNKAKSNPKRVALAEGEDEKMIRAAYQMQEEGIAEPILVGETTTILRKAEELGLDFDPTIANPRDGEWDHYVDRLYELRQRKGVTNSEAEELVRRDSNYFASVMVEVGDADAMLTGLTHHYPSALRPPLQIIGTADDADYAAGVYMMTFKNRVVFCADTTVNLDPDEEVLAEITKHTADLARQFNVEPRAALLSYSNFGSVTNEGTRKPRDAAALLQDDPEVDFPVDGEMQADTALVEDILEGTYDFAELDGPANVLVFPNLEAGNIGYKLLQRLGGAEAIGPMLVGMDKPVHVLQRGDEVKDIVNLAATAVVDAQEE
notes: full length with C-terminal PTA domain, Ni-NTA purified, homologous expression in H. volcanii
- Km [7]: 650 µM
- Km [8]: 100 µM
- Km [9]: 60 µM

B3: AMP-forming acetyl-CoA synthetase ACS9 from Haloferax volcanii, recombinant (enzyme, UniProt D4GRL3 1-538, looked up)
chain: MKKQLLVTDFLDRARTYYGDYEAVVGVDGERFTYAEFGERVDRFSAALQSRGVEKGDRVAVLDPNTHYHLEAAFGAMQCGALHVPLNYRLTTDDYEYLLSDSGATVVYADYQYAGKIEAVRDDVPAEVFVTNDPAAVDGDWLDFEAFLDEADADDYERPEMSEDELITINYTSGTTGDPKGVCRTHRTESLHAQLVTIHHHIGDDDVYLWTLPMFHVNGWGHIYAVTGRGAKHVCTRGVEAEAVFDAITEEDVSFFCCAPTVLSILREYAEEHDPAYAGDNPVRVTAAGSAAPSATIRHTESEFGWEFTQLYGATETGPLIATSDANRLIPDEGGLRFSLKQRQGVAPLGTDLRVVDDDGEQVPRGDATIGEVVVRGNQVMEKYWNKPDETHDAFNDRLEGWYHTGDLAVVNEDGMIAIQDRKKDIIISGGENISSVELEDALFDHDAVGDVAVIPAPSEKWGETPKAFVVPANGDVENPGVTAEELTAYTRDRLAGYKAIREFEFVAEIPKTATGKIQKYELRKREWDDEERMVGQG
notes: 59 kDa subunits; gene amplified from genomic DNA; source: H. volcanii H1209 (plasmid pTA963, homologous overexpression), purified (Ni-NTA, Superdex 200)
- stoichiometry N [10]: 2

B4: ACS2 (Haloferax volcanii DS2) (protein)
chain: MKKPLLVTEFLDRARRYYGDEEAVVATTGERFTYDELGERADGFSAALQSRGVEKGDRVAVLDPNTHYHLEAAYGSMQLGAVHMPLNYRLVPADFEYVLNDADVTAVYADYAFAEKIDAVRDEIPAEIFVTNDPEKAAESTDGEWLDFDELVAESTDYERPEMDEDDIITINYTSGTTGDPKGVCRTHRAETIHAYLISMHQDIGDDDVYLWTLPMFHVNGWGHIYAITGHGAKHVCTRGVEAEAVLDAIRDEDVSYLCAAPTVLNILMKHYREEGGVETTGASPVRAATAGAAPPEATIRTVEDEFGWRLMHVYGATETGPLITTSEAGRYLTDGDDRFGVKKKQGIGYLGTDVRVVDEDGTDVPRDEQSVGEIVVTGNQVMEKYWNKPEETEEAFSARLEGYYHMGDLAVVDENGFISIQDRKKDIIISGGENISSIELEDTLFDHDEVADVAVIPVPSDEWGESPKAFVVPTSGDPDAPGVTAEALIAFCRERIATYKVPKEVEFVTELPKTATGKVQKYELREREWEDEGRMMGEG
notes: full length, Ni-NTA purified (pTA963), homologous expression in H. volcanii
- Km [2, 12]: 1500 µM
- Vmax [2, 12]: 1.5 µmol/min/mg
- Km [4, 13]: 430 µM
- Km [5, 13]: 2210 µM

B5: AMP-forming acetyl-CoA synthetase ACS2 from Haloferax volcanii, recombinant (enzyme, UniProt D4GUW5 1-540, looked up)
chain: MKKPLLVTEFLDRARRYYGDEEAVVATTGERFTYDELGERADGFSAALQSRGVEKGDRVAVLDPNTHYHLEAAYGSMQLGAVHMPLNYRLVPADFEYVLNDADVTAVYADYAFAEKIDAVRDEIPAEIFVTNDPEKAAESTDGEWLDFDELVAESTDYERPEMDEDDIITINYTSGTTGDPKGVCRTHRAETIHAYLISMHQDIGDDDVYLWTLPMFHVNGWGHIYAITGHGAKHVCTRGVEAEAVLDAIRDEDVSYLCAAPTVLNILMKHYREEGGVETTGASPVRAATAGAAPPEATIRTVEDEFGWRLMHVYGATETGPLITTSEAGRYLTDGDDRFGVKKKQGIGYLGTDVRVVDEDGTDVPRDEQSVGEIVVTGNQVMEKYWNKPEETEEAFSARLEGYYHMGDLAVVDENGFISIQDRKKDIIISGGENISSIELEDTLFDHDEVADVAVIPVPSDEWGESPKAFVVPTSGDPDAPGVTAEALIAFCRERIATYKVPKEVEFVTELPKTATGKVQKYELREREWEDEGRMMGEG
notes: AMP-forming acetyl-CoA synthetase ACS2 of Haloferax volcanii, gene acs2, locus tag HVO_0896; calculated subunit 59.8 kDa; gene amplified from genomic DNA; also called recombinant ACS2; HVO_0896; source: H. volcanii H1209 (plasmid pTA963, homologous overexpression), purified (Ni-NTA, size exclusion chromatography)
- stoichiometry N [3]: 2

B6: AMP-forming acetyl-CoA synthetase ACS2 purified from acetate-grown Haloferax volcanii cells (enzyme, UniProt D4GUW5 1-540, looked up)
chain: MKKPLLVTEFLDRARRYYGDEEAVVATTGERFTYDELGERADGFSAALQSRGVEKGDRVAVLDPNTHYHLEAAYGSMQLGAVHMPLNYRLVPADFEYVLNDADVTAVYADYAFAEKIDAVRDEIPAEIFVTNDPEKAAESTDGEWLDFDELVAESTDYERPEMDEDDIITINYTSGTTGDPKGVCRTHRAETIHAYLISMHQDIGDDDVYLWTLPMFHVNGWGHIYAITGHGAKHVCTRGVEAEAVLDAIRDEDVSYLCAAPTVLNILMKHYREEGGVETTGASPVRAATAGAAPPEATIRTVEDEFGWRLMHVYGATETGPLITTSEAGRYLTDGDDRFGVKKKQGIGYLGTDVRVVDEDGTDVPRDEQSVGEIVVTGNQVMEKYWNKPEETEEAFSARLEGYYHMGDLAVVDENGFISIQDRKKDIIISGGENISSIELEDTLFDHDEVADVAVIPVPSDEWGESPKAFVVPTSGDPDAPGVTAEALIAFCRERIATYKVPKEVEFVTELPKTATGKVQKYELREREWEDEGRMMGEG
notes: AMP-forming acetyl-CoA synthetase ACS2 of Haloferax volcanii, gene acs2, locus tag HVO_0896; identified by MALDI-TOF MS of the 69 kDa subunit; Native enzyme, no tag; also called HVO_0896
- stoichiometry N [10]: 2
